Experimental data taken from the supplement of paper PMC6379048.

Tests used:
Assay in all cases: EC50 of free RNA motif oligo competing protein binding to immobilised probe
GPATCH3 = molecular target: T1, GPATCH3 (UniProt Q96I76)
T1 sequence: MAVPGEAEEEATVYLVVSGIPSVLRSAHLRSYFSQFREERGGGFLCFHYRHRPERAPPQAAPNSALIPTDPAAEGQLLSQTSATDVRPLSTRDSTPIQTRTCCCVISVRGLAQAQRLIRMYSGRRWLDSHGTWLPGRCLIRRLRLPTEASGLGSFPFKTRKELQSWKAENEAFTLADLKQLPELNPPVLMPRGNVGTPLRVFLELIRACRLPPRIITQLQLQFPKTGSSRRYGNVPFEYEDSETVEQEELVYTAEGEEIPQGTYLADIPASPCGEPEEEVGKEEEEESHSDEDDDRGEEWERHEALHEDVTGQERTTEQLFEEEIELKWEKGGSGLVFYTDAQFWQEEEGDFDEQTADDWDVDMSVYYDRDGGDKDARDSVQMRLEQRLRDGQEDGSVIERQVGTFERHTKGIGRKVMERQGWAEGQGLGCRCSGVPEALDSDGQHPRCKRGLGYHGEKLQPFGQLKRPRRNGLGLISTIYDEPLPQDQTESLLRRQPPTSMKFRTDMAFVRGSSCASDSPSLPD
Summary of the method: (§1)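 HEK293-FT lysate (2.5 mg protein/well) was treated with free RNA oligos (0 nM to 30 μM) for 1 h at 4°C, then with the same oligos on NHS-Sepharose beads for 30 min at 4°C. Bound proteins were quantified by label-free LC-MS/MS relative to the control. EC50 came from a four-parameter log-logistic fit, and Kd is EC50 times a protein-dependent depletion factor.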

ELAVL1 = ELAVL1 (UniProt Q15717)
Summary of the method: as §1

CPSF1 = molecular target: T2, CPSF1 (UniProt Q10570)
T2 sequence: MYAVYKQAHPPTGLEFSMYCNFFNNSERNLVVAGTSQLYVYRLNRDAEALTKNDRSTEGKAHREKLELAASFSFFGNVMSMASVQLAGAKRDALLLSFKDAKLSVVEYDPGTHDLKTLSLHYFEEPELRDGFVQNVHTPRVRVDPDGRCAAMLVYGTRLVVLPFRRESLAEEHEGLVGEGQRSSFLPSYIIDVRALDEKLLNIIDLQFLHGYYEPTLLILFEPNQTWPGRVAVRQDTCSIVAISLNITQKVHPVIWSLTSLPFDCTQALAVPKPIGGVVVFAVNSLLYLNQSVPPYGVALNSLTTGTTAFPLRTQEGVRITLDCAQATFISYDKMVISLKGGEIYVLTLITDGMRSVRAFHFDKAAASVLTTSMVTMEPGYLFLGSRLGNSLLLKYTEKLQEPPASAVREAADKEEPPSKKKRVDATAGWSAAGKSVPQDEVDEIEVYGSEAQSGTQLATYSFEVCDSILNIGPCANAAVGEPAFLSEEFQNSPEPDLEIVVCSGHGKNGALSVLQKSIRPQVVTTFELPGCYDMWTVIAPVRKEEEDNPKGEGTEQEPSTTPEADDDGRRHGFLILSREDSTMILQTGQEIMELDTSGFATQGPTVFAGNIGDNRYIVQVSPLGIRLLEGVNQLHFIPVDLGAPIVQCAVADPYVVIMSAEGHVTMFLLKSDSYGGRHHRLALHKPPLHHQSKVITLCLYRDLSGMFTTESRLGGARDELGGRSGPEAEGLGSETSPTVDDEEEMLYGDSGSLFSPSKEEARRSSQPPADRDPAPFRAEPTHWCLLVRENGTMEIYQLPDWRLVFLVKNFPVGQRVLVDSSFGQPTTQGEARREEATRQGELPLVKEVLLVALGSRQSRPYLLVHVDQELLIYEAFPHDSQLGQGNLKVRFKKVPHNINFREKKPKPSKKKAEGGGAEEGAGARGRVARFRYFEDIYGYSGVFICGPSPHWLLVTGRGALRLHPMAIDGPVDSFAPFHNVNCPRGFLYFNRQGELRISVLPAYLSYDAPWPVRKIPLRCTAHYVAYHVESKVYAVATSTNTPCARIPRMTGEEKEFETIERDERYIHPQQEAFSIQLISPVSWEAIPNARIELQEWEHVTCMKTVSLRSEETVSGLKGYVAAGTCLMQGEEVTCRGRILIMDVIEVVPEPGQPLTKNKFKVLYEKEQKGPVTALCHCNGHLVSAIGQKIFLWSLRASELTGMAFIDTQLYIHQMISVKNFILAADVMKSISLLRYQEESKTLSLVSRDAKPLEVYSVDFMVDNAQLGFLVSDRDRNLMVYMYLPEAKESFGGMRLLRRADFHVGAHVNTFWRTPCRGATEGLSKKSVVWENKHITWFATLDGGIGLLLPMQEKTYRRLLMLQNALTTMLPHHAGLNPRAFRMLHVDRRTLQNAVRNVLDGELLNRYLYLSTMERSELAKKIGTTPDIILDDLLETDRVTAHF
Summary of the method: as §1

SSB = molecular target: T3, SSB (UniProt P05455)
T3 sequence: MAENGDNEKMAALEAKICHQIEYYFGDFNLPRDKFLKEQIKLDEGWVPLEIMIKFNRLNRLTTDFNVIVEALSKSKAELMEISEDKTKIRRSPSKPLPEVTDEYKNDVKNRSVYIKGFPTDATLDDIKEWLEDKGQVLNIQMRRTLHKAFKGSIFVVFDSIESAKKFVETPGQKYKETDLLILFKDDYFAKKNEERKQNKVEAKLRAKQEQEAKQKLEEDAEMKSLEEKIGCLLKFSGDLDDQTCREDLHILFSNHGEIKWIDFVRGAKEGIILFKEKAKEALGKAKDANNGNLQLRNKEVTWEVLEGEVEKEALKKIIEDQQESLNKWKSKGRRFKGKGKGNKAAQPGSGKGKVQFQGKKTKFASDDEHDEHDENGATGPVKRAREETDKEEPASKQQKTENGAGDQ
Summary of the method: as §1

Chain of ELAVL1 (Q15717 whole entry): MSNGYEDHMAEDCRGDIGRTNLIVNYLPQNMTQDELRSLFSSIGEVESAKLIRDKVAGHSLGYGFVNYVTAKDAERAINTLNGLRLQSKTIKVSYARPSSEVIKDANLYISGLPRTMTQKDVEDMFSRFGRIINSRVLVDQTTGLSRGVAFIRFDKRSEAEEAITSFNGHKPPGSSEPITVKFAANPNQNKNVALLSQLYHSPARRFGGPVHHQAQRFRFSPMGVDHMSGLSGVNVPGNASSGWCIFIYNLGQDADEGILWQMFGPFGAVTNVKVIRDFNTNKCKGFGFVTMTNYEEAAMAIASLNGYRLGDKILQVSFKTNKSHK

Sequence | EC50 (GPATCH3) [µM] | EC50 (ELAVL1) [µM] | EC50 (CPSF1) [µM] | EC50 (SSB) [µM]
AAUAAA | 0.884 | 5.06 | 0.0644 | 
CUGUCCU |  |  |  | 2.64
UAUUUAU | 0.326 | 3.04 | 1.71 | 0.3
